For orientation: Kd means the equilibrium constant for the complex coming apart. The term koff denotes the first-order rate constant of dissociation. Higher therefore signals fast dissociation. A word on the kon: it is the second-order rate constant of association. High values mean fast association, low ones slow association.

The labels stand for the following.
B1: K1G1 (antibody, V domains shown)
VH: QVQLVQSGAEVKKPGATVKISCKVSGDTITAYYMHWVRQAPGQGLEWIGRIDPEDDSTKYAENFKGRVTITADTSTDTAYMELSSLRSEDTAVYYCTTVTFYYSRELRWFAYWGQGTLVTVSS
VL: DIVLTQSPATLSLSPGERATLSCQASQYISNYLSWYQQKPGQAPRLLIYQATSLASGIPARFSGSRSGTDFTLTISSLEPEDFAVYYCLQHYSTPYTFGQGTKLEIK
B2: K3G6 (antibody, V domains shown)
VH: B1 VH with E54D, V99I
VL: B1 VL with S30G
B3: K2G4 (antibody, V domains shown)
VH: B1 VH with Y102L
VL: B1 VL with Q50S
B4: K2G10 (antibody, V domains shown)
VH: B1 VH with E54D, V99I, S104T
VL: B1 VL with Q50S
B5: K4G5 (antibody, V domains shown)
VH: B1 VH with S104T
VL: B1 VL with S30G, Q50S
B6: K4G10 (antibody, V domains shown)
VH: B1 VH with E54D, V99I, S104T
VL: B1 VL with S30G, Q50S
B7: K2G3 (antibody, V domains shown)
VH: B1 VH with E54D
VL: B1 VL with Q50S
B8: K3G5 (antibody, V domains shown)
VH: B1 VH with S104T
VL: B1 VL with S30G
B9: K4G3 (antibody, V domains shown)
VH: B1 VH with E54D
VL: B1 VL with S30G, Q50S
B10: K3G10 (antibody, V domains shown)
VH: B1 VH with E54D, V99I, S104T
VL: B1 VL with S30G
B11: K1G12 (antibody, V domains shown)
VH: B1 VH with E54D, V99I, Y102L, S104T
VL: B1 VL
B12: K3G9 (antibody, V domains shown)
VH: B1 VH with V99I, Y102L, S104T
VL: B1 VL with S30G
B13: K3G2 (antibody, V domains shown)
VH: B1 VH with V99I
VL: B1 VL with S30G
B14: K2G7 (antibody, V domains shown)
VH: B1 VH with V99I, S104T
VL: B1 VL with Q50S
B15: K3G1 (antibody, V domains shown)
VH: B1 VH
VL: B1 VL with S30G
B16: K4G4 (antibody, V domains shown)
VH: B1 VH with Y102L
VL: B1 VL with S30G, Q50S
B17: K2G8 (antibody, V domains shown)
VH: B1 VH with V99I, Y102L
VL: B1 VL with Q50S
B18: K4G6 (antibody, V domains shown)
VH: B1 VH with E54D, V99I
VL: B1 VL with S30G, Q50S
B19: K1G8 (antibody, V domains shown)
VH: B1 VH with V99I, Y102L
VL: B1 VL
B20: K3G4 (antibody, V domains shown)
VH: B1 VH with Y102L
VL: B1 VL with S30G
B21: K4G2 (antibody, V domains shown)
VH: B1 VH with V99I
VL: B1 VL with S30G, Q50S
B22: K2G6 (antibody, V domains shown)
VH: B1 VH with E54D, V99I
VL: B1 VL with Q50S
B23: K2G5 (antibody, V domains shown)
VH: B1 VH with S104T
VL: B1 VL with Q50S
B24: K1G9 (antibody, V domains shown)
VH: B1 VH with V99I, Y102L, S104T
VL: B1 VL
B25: K3G3 (antibody, V domains shown)
VH: B1 VH with E54D
VL: B1 VL with S30G
B26: K3G8 (antibody, V domains shown)
VH: B1 VH with V99I, Y102L
VL: B1 VL with S30G
B27: K4G8 (antibody, V domains shown)
VH: B1 VH with V99I, Y102L
VL: B1 VL with S30G, Q50S
B28: K3G7 (antibody, V domains shown)
VH: B1 VH with V99I, S104T
VL: B1 VL with S30G
B29: K4G7 (antibody, V domains shown)
VH: B1 VH with V99I, S104T
VL: B1 VL with S30G, Q50S
B30: K4G1 (antibody, V domains shown)
VH: B1 VH
VL: B1 VL with S30G, Q50S
B31: K2G2 (antibody, V domains shown)
VH: B1 VH with V99I
VL: B1 VL with Q50S
B32: K4G12 (antibody, V domains shown)
VH: B1 VH with E54D, V99I, Y102L, S104T
VL: B1 VL with S30G, Q50S
B33: K1G11 (antibody, V domains shown)
VH: B1 VH with E54D, V99I, Y102L
VL: B1 VL

Positions count from the first letter of the chain named.

T1 sequence (P60568 21-153 K84G/N110R): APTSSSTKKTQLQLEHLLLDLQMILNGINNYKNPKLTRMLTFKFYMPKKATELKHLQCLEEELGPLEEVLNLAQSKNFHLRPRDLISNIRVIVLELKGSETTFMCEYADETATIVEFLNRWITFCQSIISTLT

The experiment concerns the target T1, hIL2-DM-his (human, UniProt P60568 21-153).
T1 construct: expressed in ExpiCHO-S cells, nickel-column purified; also called hIL-2 mutein containing two point mutations K64G and N90R (with a his-tag); not shown: his-tag
Description: BLI ForteBio, Ab on Protein A sensor.
The molecule B1 had a Kd of 1.43 nM, a koff of 0.000491 s⁻¹ and a kon of 343000 M⁻¹ s⁻¹.
The like results for B2 were, in that order, 2.13 nM, 0.000844 s⁻¹ and 397000 M⁻¹ s⁻¹.
The like results for B3 were, in that order, 1.08 nM, 0.000455 s⁻¹ and 421000 M⁻¹ s⁻¹.
B4 displayed a Kd of 0.973 nM, a koff of 0.000418 s⁻¹ and a kon of 429000 M⁻¹ s⁻¹.
Molecule B5 gave a Kd of 2.7 nM, a koff of 0.00113 s⁻¹ and a kon of 418000 M⁻¹ s⁻¹.
Taken in the same sequence, the figures for B6 were 2.47 nM, 0.000907 s⁻¹ and 367000 M⁻¹ s⁻¹.
The like results for B7 were, in that order, 1.32 nM, 0.000512 s⁻¹ and 389000 M⁻¹ s⁻¹.
B8 came in with a Kd of 3.72 nM, a koff of 0.00124 s⁻¹ and a kon of 334000 M⁻¹ s⁻¹.
B9: the Kd was determined as 3.08 nM, the koff was 0.00108 s⁻¹ and the kon came to 351000 M⁻¹ s⁻¹.
For B10, the Kd is 1.46 nM, the koff came to 0.000585 s⁻¹ and the kon was 402000 M⁻¹ s⁻¹.
The like results for B11 were, in that order, 0.927 nM, 0.000396 s⁻¹ and 428000 M⁻¹ s⁻¹.
The like results for B12 were, in that order, 1.49 nM, 0.000529 s⁻¹ and 356000 M⁻¹ s⁻¹.
The like results for B13 were, in that order, 2.91 nM, 0.00118 s⁻¹ and 407000 M⁻¹ s⁻¹.
B14 showed a Kd of 1.35 nM, an off-rate (koff) of 0.000489 s⁻¹ and a kon of 361000 M⁻¹ s⁻¹.
The like results for B15 were, in that order, 4.4 nM, 0.00186 s⁻¹ and 424000 M⁻¹ s⁻¹.
Taken in the same sequence, the figures for B16 were 2.25 nM, 0.00082 s⁻¹ and 364000 M⁻¹ s⁻¹.
B17: the affinity, expressed as Kd, was 1.13 nM; the koff is 0.000507 s⁻¹; the kon worked out at 448000 M⁻¹ s⁻¹.
Molecule B18 showed a Kd of 2.33 nM, a koff of 0.000994 s⁻¹ and a kon of 426000 M⁻¹ s⁻¹.
Molecule B19 gave a dissociation constant (Kd) of 0.778 nM, an off-rate constant (koff) of 0.000291 s⁻¹ and a kon of 374000 M⁻¹ s⁻¹.
The like results for B20 were, in that order, 3 nM, 0.00122 s⁻¹ and 408000 M⁻¹ s⁻¹.
B21: the Kd was 3.72 nM, the koff turned out to be 0.00143 s⁻¹ and the kon was determined as 384000 M⁻¹ s⁻¹.
Taken in the same sequence, the figures for B22 were 1.33 nM, 0.000593 s⁻¹ and 446000 M⁻¹ s⁻¹.
As for B23, the affinity, expressed as Kd, was 1.4 nM; the koff was determined as 0.000553 s⁻¹; the kon was 396000 M⁻¹ s⁻¹.
Taken in the same sequence, the figures for B24 were 0.856 nM, 0.000285 s⁻¹ and 333000 M⁻¹ s⁻¹.
The like results for B25 were, in that order, 3.34 nM, 0.00134 s⁻¹ and 400000 M⁻¹ s⁻¹.
B26 registered a Kd of 1.5 nM, a koff of 0.000446 s⁻¹ and a kon of 297000 M⁻¹ s⁻¹.
Consider B27, for which the affinity, expressed as Kd, was 2.49 nM; the koff is 0.000856 s⁻¹; the kon was 344000 M⁻¹ s⁻¹.
Taken in the same sequence, the figures for B28 were 1.96 nM, 0.000656 s⁻¹ and 336000 M⁻¹ s⁻¹.
The like results for B29 were, in that order, 3.2 nM, 0.00127 s⁻¹ and 396000 M⁻¹ s⁻¹.
The like results for B30 were, in that order, 4.28 nM, 0.00151 s⁻¹ and 352000 M⁻¹ s⁻¹.
B31 yielded a Kd of 1.33 nM, a koff of 0.000562 s⁻¹ and a kon of 424000 M⁻¹ s⁻¹.
Taken in the same sequence, the figures for B32 were 0.686 nM, 0.000326 s⁻¹ and 476000 M⁻¹ s⁻¹.
B33 gave a Kd of 0.928 nM, a koff of 0.000373 s⁻¹ and a kon of 401000 M⁻¹ s⁻¹.

Source of the values: US20250346644A1 (LATTICON SUZHOU BIOPHARMACEUTICALS, published 2025).
